{
  "source": "paper PMC12084551",
  "data": [
    {"target": "microtubules (MTs) polymerized from porcine brain tubulin (pig (porcine brains)) (UniProt Q2XVP4)", "test": "co-sedimentation; GAS2 proteins at different concentrations with Taxol-stabilized MTs in BRB80 with 1 mM GTP, room temperature, 20 min; 186,000 × g, 10 min, 25 °C; SDS-PAGE, one site-specific binding fit", "units": {"Kd": "µM"}, "values": [
      {"substance": "GAS2-GAR G255A (from UniProt P11862 198-314) (domain or fragment)", "Kd": 2.69},
      {"substance": "GAS2-GAR G255E (from UniProt P11862 198-314) (domain or fragment)", "Kd": 9.6},
      {"substance": "GAS2-GAR K266E (from UniProt P11862 198-314) (domain or fragment)", "Kd": 10.6},
      {"substance": "GAS2-GAR R242E (from UniProt P11862 198-314) (domain or fragment)", "Kd": 5},
      {"substance": "GAS2-GAR R252E (from UniProt P11862 198-314) (domain or fragment)", "Kd": 47},
      {"substance": "GAS2-GAR W257E (from UniProt P11862 198-314) (domain or fragment)", "Kd": 27},
      {"substance": "GAS2-GAR domain (residues 198–314) (from UniProt P11862 198-314) (domain or fragment)", "Kd": 0.69}
    ]},
    {"target": "full-length GAS2 (GAS2-FL (1–314)) (mouse) (UniProt P11862)", "test": "SEC; Superdex 75 HR 10/300; 30 mM Tris-HCl pH 8.0, 300 mM KCl, 100 μM ZnCl2, 0.1% β-ME; molecular weight from a calibration with BSA, carbonic anhydrase and cytochrome c", "values": [
      {"substance": "full-length GAS2 (GAS2-FL (1–314)) (from UniProt P11862 1-314) (natural protein)", "stoichiometry N": 2}
    ]}
  ]
}
